# Assay results taken from US20210180089A1, “NANOPARTICLES FOR TRANSFECTION” (LOXEGEN HOLDINGS PTY LTD, priority 2018, published 2021).
# Ends that are not written are not given here.
# Experiment: Average particle diameter of peptide/DNA nanoparticles by ZetaPALS dynamic light scattering
# Assay type: physicochemical
# Method: The DNA was diluted to 50-100 ug/mL in 5mM HEPES pH 7.4. A peptide solution at a concentration of 100-180 ug/mL in 5 mM HEPES was prepared. A 250 uL volume of the DNA solution was transferred into a 2 mL Eppendorf tube. Using a 100 uL peptide, an equal volume of the peptide solution was titrated, at an appropriate rate to avoid aggregation, into the DNA solution while vortexing. The solution slowly turns translucent and no visible particles should occur. The particle size is measured using a dynamic light scattering (DLS) instrument (such as the Brookhaven ZetaPALS). The particle size should be below 100 nm, preferably below 80 nm. The nanoparticles were filtered through a 0.22 um sterile filter. The formulation was stored in a refrigerator (2-8 deg C.) until desired for use and/or for PEGylation. Where PEGylated peptide/DNA nanoparticles are required, a PEG-Zn solution was prepared in a separate tube at a concentration of about 400 mg/mL. 25-100 uL of the PEG solution was slowly added to 500 uL of the peptide/DNA nanoparticle preparation, depending on the degree of PEG-coating required. The particle size was measured by DLS. The particle size should be about 100-140 nm depending on the amount of PEG added. The formulation was store in a refrigerator (2-8 deg C.). Above describes a range for the peptide/DNA ratio which can be used in one embodiment. In a preferred example, the ratios used for nanoparticle preparation were: 100 ug/mL DNA and 100 ug/mL peptide mixed at equal volume. PEGylation: 50 uL of 440 mg/mL PEG-IDA-Zn into 500 uL nanoparticles as prepared above.
Substance,"Average Particle Diameter (via ZETA Pals particle size analysis) (GFP, PEG)","Average Particle Diameter (via ZETA Pals particle size analysis) (GFP, non-PEG)","Average Particle Diameter (via ZETA Pals particle size analysis) (luciferase, PEG)","Average Particle Diameter (via ZETA Pals particle size analysis) (luciferase, non-PEG)"
"(H-Lys-His-Lys-His-His-Lys-His-His-Lys-His-His-Lys-His-His-Lys-His-His-Lys-His-Lys)4-Lys-Lys-Lys-His-His-His-His-Asn-His-His-His-His-OH (chain 1 H-KHKHHKHHKHHKHHKHHKHK; chain 2 KKKHHHHNHHHH-OH; also: four copies of chain 1 branched on core chain 2, attachment points not given here) [Peptide 2070, original peptide HK, 2:3 Lys:His, 4 branches]","127.4 nm (GFP, PEG)","66.0 nm (GFP, non-PEG)","94.5 nm (luciferase, PEG)","58.5 nm (luciferase, non-PEG)"
"(H-Lys-His-Lys-His-His-Lys-His-Lys-His-His-Lys-His-Lys-His-His-Lys-His-Lys-His-Lys)4-Lys-Lys-Lys-His-His-His-His-Asn-His-His-His-His-OH (chain 1 H-KHKHHKHKHHKHKHHKHKHK; chain 2 KKKHHHHNHHHH-OH; also: four copies of chain 1 branched on core chain 2, attachment points not given here) [Peptide 2597, 9:11 Lys:His]","90.9 nm (GFP, PEG)","54.7 nm (GFP, non-PEG)","86.0 nm (luciferase, PEG)","51.3 nm (luciferase, non-PEG)"
"(H-Lys-His-Lys-His-Lys-His-Lys-His-Lys-His-Lys-His-Lys-His-Lys-His-Lys-His-His-Lys)4-Lys-Lys-Lys-His-His-His-His-Asn-His-His-His-His-OH (chain 1 H-KHKHKHKHKHKHKHKHKHHK; chain 2 KKKHHHHNHHHH-OH; also: four copies of chain 1 branched on core chain 2, attachment points not given here) [Peptide 2596, 1:1 Lys:His]","124.1 nm (GFP, PEG)","82.1 nm (GFP, non-PEG)","77.4 nm (luciferase, PEG)","64.3 nm (luciferase, non-PEG)"
(H-Orn-His-Orn-His-His-Orn-His-His-Orn-His-His-Orn-His-His-Orn-His-His-Orn-His-Orn)4-Lys-Lys-Lys-His-His-His-His-Asn-His-His-His-His-OH [Peptide 2595],"101.3 nm (GFP, PEG)","73.7 nm (GFP, non-PEG)","70.9 nm (luciferase, PEG)","65.9 nm (luciferase, non-PEG)"
